Experimental findings from the RNAGym collection of RNA variant scans (doi:10.7554/elife.80360) are described below.

To fix the notation:
B1: Hairpin Ribozyme (parent)
chain: GUCCUCUUUCACGUGCGCGUGAAAGAGAGAAGUGAACCAGAGAAACACACGUUGUGGUAUAUUACCUGGUA

In the data set the parent is B1. Nature of the data set: self-cleavage, relative activity (ratio to wild type); higher = more cleavage; co-transcriptional.
Take C37A A39U: the self-cleavage turned out to be 0.0999. The result for U7C U8C reads 0.52; that for G25U G34C, 1.13. The result for G32C C38U reads 0.181; that for G51C C66U, 0.452.

Regarding A30G G56C, the self-cleavage came out at 0.0815. In the case of G17A U52G, the self-cleavage was 0.982. Regarding A28C G56A, the self-cleavage turned out to be 0.137. With G17C C37A, the self-cleavage was found to be 0.287.

Turning to G17A A36G, the self-cleavage amounted to 1.17.

As for C10G A24U, the self-cleavage was found to be 0.468. To C3U U60G belongs 0.331; to U52A U58G, 0.678. The result for G42A C50G reads 0.128; that for U14G U55C, 0.286; that for G15U C65U, 0.33. C4A G40U: the self-cleavage worked out at 0.141. The result for C3G C65A reads 0.263; that for U7G G56A, 0.151. The result for A31U U67G reads 0.0559. Consider G19U U63A, for which the self-cleavage was 0.166. Take A24C G68A: the self-cleavage was determined as 0.233.

Consider A47U U67A, for which the self-cleavage was found to be 0.103. As to C37A C66U, the self-cleavage amounted to 0.179. To A30G C38G belongs 0.149; to G27U A61G, 0.171; to G27C, 0.172.

A31U A64C: the self-cleavage turned out to be 0.0924. The result for A43U U63A reads 0.107; that for A43U U63C, 0.219; that for A47G U60C, 0.135.

On to G25A U33G, for which the self-cleavage is 0.136.

In the case of A28C U70G, the self-cleavage stood at 0.322. U9G A39U: the self-cleavage turned out to be 0.158. The result for U2A reads 0.259; that for C37G U62G, 0.138; that for G32U A44U, 0.243. Turning to C50A C65A, the self-cleavage came to 0.142.

On to C16G A59C, for which the self-cleavage is 0.17. As to G13U U53C, the self-cleavage is 0.477. To G27C A71G belongs 0.143.

Consider C12A A64C, for which the self-cleavage is 0.101. Consider C6G G17U, for which the self-cleavage came out at 0.369.

As to C16G G32A, the self-cleavage was determined as 0.179.

For A22C C66G, the self-cleavage amounted to 0.0576. G56C U58G: the self-cleavage was 0.234. As for C16G C50G, the self-cleavage turned out to be 0.157. The result for U9A U55C reads 0.179; that for U8C G69A, 0.327. With G27A G34A, the self-cleavage is 0.551. On to U20C A30U, for which the self-cleavage was 0.0821. The result for C6A A41C reads 0.873. Regarding U7G G68C, the self-cleavage was determined as 0.224. Turning to U52C A64C, the self-cleavage was 0.128. The result for G13A U14C reads 0.855; that for U8A C50A, 0.158; that for G29A G51U, 0.0861.

On to C18G A71G, for which the self-cleavage was 0.932. For the variant G34U C50A, the self-cleavage was 1.13. The result for G17A A47C reads 0.319.

Regarding C6G G68A, the self-cleavage came to 0.132. The result for G32U U63A reads 0.172.

On to A11U C18U, for which the self-cleavage was 1.12. Regarding G1C A22U, the self-cleavage was 0.103. The result for U33A U60A reads 0.0246; that for G17A G42A, 0.222. Take A47U U70G: the self-cleavage came to 0.141.

Consider A28U G69C, for which the self-cleavage amounted to 0.219.

Regarding G29A U67C, the self-cleavage is 0.106. To A49G G56C belongs 0.155. The result for U7G U67G reads 0.283; that for A47U G68A, 0.148. The result for G32U A45U reads 0.3.

Turning to U8C G21C, the self-cleavage is 0.114. For the variant A22G G40C, the self-cleavage amounted to 0.146.

On to C4G U5C, for which the self-cleavage was 0.112.

For U60A U63G, the self-cleavage is 0.136. Take G57C C65A: the self-cleavage amounted to 0.0756. In the case of G13U A49C, the self-cleavage turned out to be 0.117. For the variant A26C G34U, the self-cleavage is 1.03. With G25A A26U, the self-cleavage was 0.175. To C4G G19A belongs 0.143; to C38G A41U, 0.358; to C37G A39G, 0.328. To C12G A28U belongs 0.57; to C12G A28C, 0.561; to A30C G34C, 0.79. Regarding U62C C66A, the self-cleavage was found to be 0.13. To U7A G15U belongs 0.844. The result for G34A G57U reads 0.461. For G15C G19C, the self-cleavage came to 0.786. To U5C A11U belongs 0.55. As to C12U A39G, the self-cleavage amounted to 0.297. The result for U5A G21C reads 0.156; that for U2G G29U, 0.137; that for A26U A30G, 0.142. The result for A24C G34C reads 1.07; that for U2G U52A, 0.33. To A26C U52A belongs 0.599; to C48U U53A, 0.0973; to U5C G27A, 0.247.

On to U20G A24C, for which the self-cleavage was determined as 0.789. The result for G19U G29U reads 0.14; that for A35C G51A, 1.26. Consider A44G U60C, for which the self-cleavage amounted to 0.0999. G17A G34C: the self-cleavage amounted to 1.3.

In the case of G21C A35C, the self-cleavage stood at 0.748. To U14A G54A belongs 0.581. For A28C A64C, the self-cleavage amounted to 0.245. As for G1C A64U, the self-cleavage was 0.107.

Regarding C48G C65G, the self-cleavage was found to be 0.149.

Consider G27U U52G, for which the self-cleavage is 0.114. Regarding A30G A61U, the self-cleavage was 0.153.

On to U2G G42U, for which the self-cleavage came out at 0.0398. With G29U A35G, the self-cleavage came to 0.137. To G17C U67C belongs 0.197; to G27C G56A, 0.0609. As to G19A G25C, the self-cleavage is 0.419. To A22C A43U belongs 0.15; to C3U G69C, 0.185; to C48U C66A, 0.176. The result for U9A G51C reads 0.673.

As for C16G U67G, the self-cleavage was 0.191.

As for C12U A36C, the self-cleavage amounted to 0.674.

Consider A47G G54C, for which the self-cleavage came out at 0.266. To C46G U63C belongs 0.103; to C46G U63G, 0.0876. To C10U C37A belongs 0.364; to G13U G15C, 0.608; to U5C A28U, 0.277. To C12G G56C belongs 0.154; to A24C A49U, 0.119. Take G29C U53C: the self-cleavage turned out to be 0.252. Take C37U U62G: the self-cleavage was found to be 0.166. The result for C38A G40A reads 0.139; that for U7G G13U, 0.632; that for A22U G42A, 0.264. To U2C A26C belongs 0.0664; to U8C A30G, 0.144; to G40A A64C, 0.16. To G1A A47G belongs 0.123. Consider G1A A47C, for which the self-cleavage came to 0.124. The result for G19A A30G reads 0.149. As to A26U U67A, the self-cleavage came out at 0.196. For the variant A11G A41U, the self-cleavage was 1.14.

Regarding C16A U33A, the self-cleavage is 0.17. To G69A belongs 0.407; to C50G G54U, 0.441; to A31G C66G, 0.211. G25U A31G: the self-cleavage is 0.385. As to G27A G56U, the self-cleavage is 0.156. The result for G51U A64G reads 0.544; that for C4A A59C, 0.191; that for U5C G51C, 0.732. With G54C U60G, the self-cleavage was 0.27. The result for U5A U58G reads 0.251. Consider C38U G56A, for which the self-cleavage was 0.106. To C16A A59U belongs 0.212; to C6A C48G, 0.121; to C12U U20C, 0.894. Regarding C4G G29A, the self-cleavage turned out to be 0.0497. For the variant G21A C48A, the self-cleavage was determined as 0.19. Consider A22G C65U, for which the self-cleavage turned out to be 0.395. As to A30C G32U, the self-cleavage was determined as 0.188.

G32A G51U: the self-cleavage worked out at 0.122. To A43G U63G belongs 0.11; to A22U G34A, 1.24.
